Test results reported in article PMC8298264, “Function of cofactor Akirin2 in the regulation of gene expression in model human neutrophil-like HL60 cells” (Bioscience Reports, 2021).

These molecules were tested on human HL60 cells (assay: SWATH-MS proteomics, differential protein representation, akirin2 KO vs WT HL60 cells). Details: KO vs WT HL60 cells; sheet "Under-represented in KO".
Format: cell-based
Outline: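 Proteins from WT and akirin2 KO HL60 cells (n=3 biological replicates) were FASP trypsin-digested and analyzed by SWATH-MS DIA with variable windows against an IDA-derived spectral library. Identifications at 1% global FDR; quantities normalized to total area sums of all detected proteins.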

Molecule | Fold Change | Log (Fold Change)
sp¦O95202¦LETM1_HUMAN (protein, UniProt O95202 116-739, looked up) Mitochondrial proton/calcium …: DDSVVEKSLKSLKDKNKKLEEGGPVYSPPAEVVVKKSLGQRVLDELKHYYHGFRLLWIDTKIAARMLWRILNGHSLTRRERRQFLRICADLFRLVPFLVFVVVPFMEFLLPVAVKLFPNMLPSTFETQSLKEERLKKELRVKLELAKFLQDTIEEMALKNKAAKGSATKDFSVFFQKIRETGERPSNEEIMRFSKLFEDELTLDNLTRPQLVALCKLLELQSIGTNNFLRFQLTMRLRSIKADDKLIAEEGVDSLNVKELQAACRARGMRALGVTEDRLRGQLKQWLDLHLHQEIPTSLLILSRAMYLPDTLSPADQLKSTLQTLPEIVAKEAQVKVAEVEGEQVDNKAKLEATLQEEAAIQQEHREKELQKRSEVAKDFEPERVVAAPQRPGTEPQPEMPDTVLQSETLKDTAPVLEGLKEEEITKEEIDILSDACSKLQEQKKSLTKEKEELELLKEDVQDYSEDLQEIKKELSKTGEEKYVEESKASKRLTKRVQQMIGQIDGLISQLEMDQQAGKLAPANGMPTGENVISVAELINAMKQVKHIPESKLTSLAAALDENKDGKVNIDDLVKVIELVDKEDVHISTSQVAEIVATLEKEEKVEEKEKAKEKAEKEVAEVKS | 0.5097 | -0.2927
sp¦P36776¦LONM_HUMAN (protein, UniProt P36776 68-959, looked up) Lon protease homolog, …: FWEASSRGGGAFSGGEDASEGGAEEGAGGAGGSAGAGEGPVITALTPMTIPDVFPHLPLIAITRNPVFPRFIKIIEVKNKKLVELLRRKVRLAQPYVGVFLKRDDSNESDVVESLDEIYHTGTFAQIHEMQDLGDKLRMIVMGHRRVHISRQLEVEPEEPEAENKHKPRRKSKRGKKEAEDELSARHPAELAMEPTPELPAEVLMVEVENVVHEDFQVTEEVKALTAEIVKTIRDIIALNPLYRESVLQMMQAGQRVVDNPIYLSDMGAALTGAESHELQDVLEETNIPKRLYKALSLLKKEFELSKLQQRLGREVEEKIKQTHRKYLLQEQLKIIKKELGLEKDDKDAIEEKFRERLKELVVPKHVMDVVDEELSKLGLLDNHSSEFNVTRNYLDWLTSIPWGKYSNENLDLARAQAVLEEDHYGMEDVKKRILEFIAVSQLRGSTQGKILCFYGPPGVGKTSIARSIARALNREYFRFSVGGMTDVAEIKGHRRTYVGAMPGKIIQCLKKTKTENPLILIDEVDKIGRGYQGDPSSALLELLDPEQNANFLDHYLDVPVDLSKVLFICTANVTDTIPEPLRDRMEMINVSGYVAQEKLAIAERYLVPQARALCGLDESKAKLSSDVLTLLIKQYCRESGVRNLQKQVEKVLRKSAYKIVSGEAESVEVTPENLQDFVGKPVFTVERMYDVTPPGVVMGLAWTAMGGSTLFVETSLRRPQDKDAKGDKDGSLEVTGQLGEVMKESARIAYTFARAFLMQHAPANDYLVTSHIHLHVPEGATPKDGPSAGCTIVTALLSLAMGRPVRQNLAMTGEVSLTGKILPVGGIKEKTIAAKRAGVTCIVLPAENKKDFYDLAAFITEGLEVHFVEHYREIFDIAFPDEQAEALAVER | 0.5023 | -0.2991
sp¦P11387¦TOP1_HUMAN (protein, UniProt P11387 2-765, looked up) DNA topoisomerase 1: SGDHLHNDSQIEADFRLNDSHKHKDKHKDREHRHKEHKKEKDREKSKHSNSEHKDSEKKHKEKEKTKHKDGSSEKHKDKHKDRDKEKRKEEKVRASGDAKIKKEKENGFSSPPQIKDEPEDDGYFVPPKEDIKPLKRPRDEDDADYKPKKIKTEDTKKEKKRKLEEEEDGKLKKPKNKDKDKKVPEPDNKKKKPKKEEEQKWKWWEEERYPEGIKWKFLEHKGPVFAPPYEPLPENVKFYYDGKVMKLSPKAEEVATFFAKMLDHEYTTKEIFRKNFFKDWRKEMTNEEKNIITNLSKCDFTQMSQYFKAQTEARKQMSKEEKLKIKEENEKLLKEYGFCIMDNHKERIANFKIEPPGLFRGRGNHPKMGMLKRRIMPEDIIINCSKDAKVPSPPPGHKWKEVRHDNKVTWLVSWTENIQGSIKYIMLNPSSRIKGEKDWQKYETARRLKKCVDKIRNQYREDWKSKEMKVRQRAVALYFIDKLALRAGNEKEEGETADTVGCCSLRVEHINLHPELDGQEYVVEFDFLGKDSIRYYNKVPVEKRVFKNLQLFMENKQPEDDLFDRLNTGILNKHLQDLMEGLTAKVFRTYNASITLQQQLKELTAPDENIPAKILSYNRANRAVAILCNHQRAPPKTFEKSMMNLQTKIDAKKEQLADARRDLKSAKADAKVMKDAKTKKVVESKKKAVQRLEEQLMKLEVQATDREENKQIALGTSKLNYLDPRITVAWCKKWGVPIEKIYNKTQREKFAWAIDMADEDYEF | 0.4613 | -0.336
sp¦Q9NUQ9¦CYRIB_HUMAN (protein, UniProt Q9NUQ9 2-324, looked up) CYFIP-related Rac1 interactor …: GNLLKVLTCTDLEQGPNFFLDFENAQPTESEKEIYNQVNVVLKDAEGILEDLQSYRGAGHEIREAIQHPADEKLQEKAWGAVVPLVGKLKKFYEFSQRLEAALRGLLGALTSTPYSPTQHLEREQALAKQFAEILHFTLRFDELKMTNPAIQNDFSYYRRTLSRMRINNVPAEGENEVNNELANRMSLFYAEATPMLKTLSDATTKFVSENKNLPIENTTDCLSTMASVCRVMLETPEYRSRFTNEETVSFCLRVMVGVIILYDHVHPVGAFAKTSKIDMKGCIKVLKDQPPNSVEGLLNALRYTTKHLNDETTSKQIKSMLQ | 0.4847 | -0.3146
sp¦P25815¦S100P_HUMAN (protein, UniProt P25815 1-95, looked up) Protein S100-P: MTELETAMGMIIDVFSRYSGSEGSTQTLTKGELKVLMEKELPGFLQSGKDKDAVDKLLKDLDANGDAQVDFSEFIVFVAAITSACHKYFEKAGLK | 0.4762 | -0.3222
sp¦P42126¦ECI1_HUMAN (protein, UniProt P42126 42-302, looked up) Enoyl-CoA delta isomerase 1, …: FGSQRVLVEPDAGAGVAVMKFKNPPVNSLSLEFLTELVISLEKLENDKSFRGVILTSDRPGVFSAGLDLTEMCGRSPAHYAGYWKAVQELWLRLYQSNLVLVSAINGACPAGGCLVALTCDYRILADNPRYCIGLNETQLGIIAPFWLKDTLENTIGHRAAERALQLGLLFPPAEALQVGIVDQVVPEEQVQSTALSAIAQWMAIPDHARQLTKAMMRKATASRLVTQRDADVQNFVSFISKDSIQKSLQMYLERLKEEKG | 0.4682 | -0.3295
sp¦Q9Y617¦SERC_HUMAN (protein, UniProt Q9Y617 1-370, looked up) Phosphoserine aminotransferase: MDAPRQVVNFGPGPAKLPHSVLLEIQKELLDYKGVGISVLEMSHRSSDFAKIINNTENLVRELLAVPDNYKVIFLQGGGCGQFSAVPLNLIGLKAGRCADYVVTGAWSAKAAEEAKKFGTINIVHPKLGSYTKIPDPSTWNLNPDASYVYYCANETVHGVEFDFIPDVKGAVLVCDMSSNFLSKPVDVSKFGVIFAGAQKNVGSAGVTVVIVRDDLLGFALRECPSVLEYKVQAGNSSLYNTPPCFSIYVMGLVLEWIKNNGGAAAMEKLSSIKSQTIYEIIDNSQGFYVCPVEPQNRSKMNIPFRIGNAKGDDALEKRFLDKALELNMLSLKGHRSVGGIRASLYNAVTIEDVQKLAAFMKKFLEMHQL | 0.4967 | -0.3039
sp¦Q9H7B2¦RPF2_HUMAN (protein, UniProt Q9H7B2 1-306, looked up) Ribosome production factor 2 …: MDTLDRVVKPKTKRAKRFLEKREPKLNENIKNAMLIKGGNANATVTKVLKDVYALKKPYGVLYKKKNITRPFEDQTSLEFFSKKSDCSLFMFGSHNKKRPNNLVIGRMYDYHVLDMIELGIENFVSLKDIKNSKCPEGTKPMLIFAGDDFDVTEDYRRLKSLLIDFFRGPTVSNIRLAGLEYVLHFTALNGKIYFRSYKLLLKKSGCRTPRIELEEMGPSLDLVLRRTHLASDDLYKLSMKMPKALKPKKKKNISHDTFGTTYGRIHMQKQDLSKLQTRKMKGLKKRPAERITEDHEKKSKRIKKN | 0.4816 | -0.3173
sp¦Q7Z3D6¦GLUCM_HUMAN (protein, UniProt Q7Z3D6 29-616, looked up) D-glutamate cyclase, …: TSSMAGELRPASLVVLPRSLAPAFERFCQVNTGPLPLLGQSEPEKWMLPPQGAISETRMGHPQFWKYEFGACTGSLASLEQYSEQLKDMVAFFLGCSFSLEEALEKAGLPRRDPAGHSQTTVPCVTHAGFCCPLVVTMRPIPKDKLEGLVRACCSLGGEQGQPVHMGDPELLGIKELSKPAYGDAMVCPPGEVPVFWPSPLTSLGAVSSCETPLAFASIPGCTVMTDLKDAKAPPGCLTPERIPEVHHISQDPLHYSIASVSASQKIRELESMIGIDPGNRGIGHLLCKDELLKASLSLSHARSVLITTGFPTHFNHEPPEETDGPPGAVALVAFLQALEKEVAIIVDQRAWNLHQKIVEDAVEQGVLKTQIPILTYQGGSVEAAQAFLCKNGDPQTPRFDHLVAIERAGRAADGNYYNARKMNIKHLVDPIDDLFLAAKKIPGISSTGVGDGGNELGMGKVKEAVRRHIRHGDVIACDVEADFAVIAGVSNWGGYALACALYILYSCAVHSQYLRKAVGPSRAPGDQAWTQALPSVIKEEKMLGILVQHKVRSGVSGIVGMEVDGLPFHNTHAEMIQKLVDVTTAQV | 0.5156 | -0.2877

Same assay, conditions: akirin2 KO vs WT HL60 cells; sheet "Under-represented in KO"

Molecule | Fold Change | Log (Fold Change)
sp¦Q9NUQ2¦PLCE_HUMAN (protein, UniProt Q9NUQ2 1-364, looked up) 1-acyl-sn-glycerol-3-phosphate …: MLLSLVLHTYSMRYLLPSVVLLGTAPTYVLAWGVWRLLSAFLPARFYQALDDRLYCVYQSMVLFFFENYTGVQILLYGDLPKNKENIIYLANHQSTVDWIVADILAIRQNALGHVRYVLKEGLKWLPLYGCYFAQHGGIYVKRSAKFNEKEMRNKLQSYVDAGTPMYLVIFPEGTRYNPEQTKVLSASQAFAAQRGLAVLKHVLTPRIKATHVAFDCMKNYLDAIYDVTVVYEGKDDGGQRRESPTMTEFLCKECPKIHIHIDRIDKKDVPEEQEHMRRWLHERFEIKDKMLIEFYESPDPERRKRFPGKSVNSKLSIKKTLPSMLILSGLTAGMLMTDAGRKLYVNTWIYGTLLGCLWVTIKA | 0.2386 | -0.6223
sp¦P47985¦UCRI_HUMAN (protein, UniProt P47985 79-274, looked up) Cytochrome b-c1 complex …: SHTDIKVPDFSEYRRLEVLDSTKSSRESSEARKGFSYLVTGVTTVGVAYAAKNAVTQFVSSMSASADVLALAKIEIKLSDIPEGKNMAFKWRGKPLFVRHRTQKEIEQEAAVELSQLRDPQHDLDRVKKPEWVILIGVCTHLGCVPIANAGDFGGYYCPCHGSHYDASGRIRLGPAPLNLEVPTYEFTSDDMVIVG | 0.2341 | -0.6306
